± gives the uncertainty stated by the source.
Tested on: HEK293T
Experiment: plasma membrane surface immunostaining intensity (anti-HA, deep receptor scanning) (arbitrary fluorescence units); higher = higher plasma membrane expression

## MANYTLAPEDEYDVLIEGELESDEAEQCDKYDAQALSAQLVPSLCSAVFVIGVLDNLLVVLILVKYKGLKRVENIYLLNLAVSNLCFLLTLPFWAHAGGDPMCKILIGLYFVGLYSETFFNCLLTVQRYLVFLHKGNFFSARRRVPCGIITSVLAWVTAILATLPEFVVYKPQMEDQKYKCAFSRTPFLPADETFWKHFLTLKMNISVLVLPLFIFTFLYVQMRKTLRFREQRYSLFKLVFAIMVVFLLMWAPYNIAFFLSTFKEHFSLSDCKSSYNLDKSVHITKLIATTHCCINPLLYAFLDGTFSKYLCRCFHLRSNTPLQPRGQSAQGTSREEPDHSTEV [CCRL2]
GPCR class: A
  plasma membrane surface immunostaining intensity: 569 ± 46

## MAQQWSLQRLAGRHPQDSYEDSTQSSIFTYTNSNSTRGPFEGPNYHIAPRWVYHLTSVWMIFVVIASVFTNGLVLAATMKFKKLRHPLNWILVNLAVADLAETVIASTISVVNQVYGYFVLGHPMCVLEGYTVSLCGITGLWSLAIISWERWMVVCKPFGNVRFDAKLAIVGIAFSWIWAAVWTAPPIFGWSRYWPHGLKTSCGPDVFSGSSYPGVQSYMIVLMVTCCITPLSIIVLCYLQVWLAIRAVAKQQKESESTQKAEKEVTRMVVVMVLAFCFCWGPYAFFACFAAANPGYPFHPLMAALPAFFAKSATIYNPVIYVFMNRQFRNCILQLFGKKVDDGSELSSASKTEVSSVSSVSPA [OPN1MW3]
GPCR class: A
  plasma membrane surface immunostaining intensity: 288 ± 18

## MAQQWSLQRLAGRHPQDSYEDSTQSSIFTYTNSNSTRGPFEGPNYHIAPRWVYHLTSVWMIFVVTASVFTNGLVLAATMKFKKLRHPLNWILVNLAVADLAETVIASTISIVNQVSGYFVLGHPMCVLEGYTVSLCGITGLWSLAIISWERWMVVCKPFGNVRFDAKLAIVGIAFSWIWAAVWTAPPIFGWSRYWPHGLKTSCGPDVFSGSSYPGVQSYMIVLMVTCCIIPLAIIMLCYLQVWLAIRAVAKQQKESESTQKAEKEVTRMVVVMIFAYCVCWGPYTFFACFAAANPGYAFHPLMAALPAYFAKSATIYNPVIYVFMNRQFRNCILQLFGKKVDDGSELSSASKTEVSSVSSVSPA [OPN1LW]
GPCR class: A
  plasma membrane surface immunostaining intensity: 261 ± 14

## MARENHSLAAEFILIGFTNYPELKTLLFVVFSAIYLVTMVGNLGLVALIYVERRLLTPMYIFLGNLALMDSCCSCAVTPKMLENFFSEDRIISLYECMAQFYFLCLAETTDCFLLATMAYDRYVAICHPLQYHTMMSKTLCIRMTTGAFKAGNLHSMIHVGLLLRLTFCRSNKIHHFFCDILPLYRLSCTDPSINELMIYIFSIPIQIFTIATVLISYLCILLTVFKMKSKEGRGKAFSTCASHFLSVSIFYICLLMYIGPSEEGDKDTPVAIFYAIVIPLLNPFIYSLRNKEVINVLKKIMRNYNILKQTCSIANLFLIY [OR5K4]
GPCR class: A (Olfactory)
  plasma membrane surface immunostaining intensity: 254 ± 110

## MARENSTFNSDFILLGIFNHSPTHTFLFFLVLAIFSVAFMGNSVMVLLIYLDTQLHTPMYLLLSQLSLMDLMLICTTVPKMAFNYLSGSKSISMAGCATQIFFYTSLLGSECFLLAVMAYDRYTAICHPLRYTNLMSPKICGLMTAFSWILGSTDGIIDVVATFSFSYCGSREIAHFFCDFPSLLILSCSDTSIFEKILFICCIVMIVFPVAIIIASYARVILAVIHMGSGEGRRKAFTTCSSHLLVVGMYYGAALFMYIRPTSDRSPTQDKMVSVFYTILTPMLNPLIYSLRNKEVTRAFMKILGKGKSGE [OR2M3]
GPCR class: A (Olfactory)
  plasma membrane surface immunostaining intensity: 138 ± 19

## MARPDPSAPPSLLLLLLAQLVGRAAAASKAPVCQEITVPMCRGIGYNLTHMPNQFNHDTQDEAGLEVHQFWPLVEIQCSPDLRFFLCSMYTPICLPDYHKPLPPCRSVCERAKAGCSPLMRQYGFAWPERMSCDRLPVLGRDAEVLCMDYNRSEATTAPPRPFPAKPTLPGPPGAPASGGECPAGGPFVCKCREPFVPILKESHPLYNKVRTGQVPNCAVPCYQPSFSADERTFATFWIGLWSVLCFISTSTTVATFLIDMERFRYPERPIIFLSACYLCVSLGFLVRLVVGHASVACSREHNHIHYETTGPALCTIVFLLVYFFGMASSIWWVILSLTWFLAAGMKWGNEAIAGYAQYFHLAAWLIPSVKSITALALSSVDGDPVAGICYVGNQNLNSLRGFVLGPLVLYLLVGTLFLLAGFVSLFRIRSVIKQGGTKTDKLEKLMIRIGIFTLLYTVPASIVVACYLYEQHYRESWEAALTCACPGHDTGQPRAKPEYWVLMLKYFMCLVVGITSGVWIWSGKTVESWRRFTSRCCCRPRRGHKSGGAMAAGDYPEASAALTGRTGPPGPAATYHKQVSLSHV [FZD5]
GPCR class: F
  plasma membrane surface immunostaining intensity: 4020 ± 200

From the supplement of paper PMC12458215
